Tests used:
GPC3 [1] = target: T1, GPC3 (UniProt P51654 25-559, limits assumed); assay: SPR as in Example 1 (Biacore T200; scFv-Fc captured, GPC3 in flow)
T1 construct: also called antigen GPC3; Glypican 3
Text: (§1) The humanized VLs (VL1 and VL1.M2) were connected to humanized VHs (VH2, VH2.M1, VH2.M5 and VH2.M6) with a (G4S)₃ linker (SEQ ID NO: 10) to construct humanized scFvs. These scFvs were expressed with a C-terminal Fc tag in HEK293 cells. The crude scFv proteins secreted to the cell culture supernatant were used for binding affinity determination using surface plasmon resonance (SPR) on a Biacore T200 machine. Briefly, the scFv protein was captured on the sensor chip pre-coated with goat-anti-human Fc polyclonal antibody (pAb) (Jackson ImmunoResearch, cat #109-005-098) via the interaction between pAb and the Fc tag, then the antigen GPC3 concentration ranging from 10 nM to 320 nM flowed through the sensor chip. After 100 s of association, running buffer (10 mM HEPES, 150 mM NaCl, 3 mM EDTA, 0.005% Tween-20, pH 7.4) flowed through the sensor chip to allow the scFv-GPC3 complex to dissociation. The sensor chip was regenerated using 50 mM HCl between cycles.
To further improve the humanization of anti-GPC3 scFvs, additional amino acid residues in VH1 and VL1 were mutated to their human germline counterparts. In HCDR2 of VH2.M6, mutations K54S, T55G or both were introduced, yielding VH2.M8 (SEQ ID NO: 11), VH2.M9 (SEQ ID NO: 12) and VH2.M10 (SEQ ID NO: 13) sequences, respectively. Mutation D57S was introduced to VH2.M6, yielding VH2.M11 sequence (SEQ ID NO: 14). All three additional mutations was introduced to VH2.M6, yielding VH2.M12 sequence (SEQ ID NO: 15). Similarly for VL1.M2, an additional N35K mutation was introduced to LCDR1, yielding VL1.M3 (SEQ ID NO: 16). Additional S94M, N96G and V99W mutations were introduced to LCDR3 of VL1.M2 individually, yielding VL1.M6 (SEQ ID NO: 17), VL1.M7 (SEQ ID NO: 18) and VL1.M8 (SEQ ID NO: 19) sequences, respectively. Additional S94M mutations was introduced to LCDR3 of VL1, yielding VL1.M9 (SEQ ID NO: 137) sequence. The binding affinity of these humanized variants were again determined using SPR as described in Example 1 (Table 5).

GPC3 [2] = target: T1, GPC3; assay: SPR (Biacore T200); scFv-Fc captured by anti-human Fc pAb, GPC3 10-320 nM in flow
Text: as §1

GPC3 [3] = target: T1, GPC3; assay: SPR as in Example 1; reference not named (VH2.M6 or mouse scFv)
Text: as §1
To further improve the humanization of anti-GPC3 scFvs, additional amino acid residues in VH1 and VL1 were mutated to their human germline counterparts. […] The binding affinity of these humanized variants were again determined using SPR as described in Example 1 (Table 5).

T1 sequence (P51654 25-559 limits assumed): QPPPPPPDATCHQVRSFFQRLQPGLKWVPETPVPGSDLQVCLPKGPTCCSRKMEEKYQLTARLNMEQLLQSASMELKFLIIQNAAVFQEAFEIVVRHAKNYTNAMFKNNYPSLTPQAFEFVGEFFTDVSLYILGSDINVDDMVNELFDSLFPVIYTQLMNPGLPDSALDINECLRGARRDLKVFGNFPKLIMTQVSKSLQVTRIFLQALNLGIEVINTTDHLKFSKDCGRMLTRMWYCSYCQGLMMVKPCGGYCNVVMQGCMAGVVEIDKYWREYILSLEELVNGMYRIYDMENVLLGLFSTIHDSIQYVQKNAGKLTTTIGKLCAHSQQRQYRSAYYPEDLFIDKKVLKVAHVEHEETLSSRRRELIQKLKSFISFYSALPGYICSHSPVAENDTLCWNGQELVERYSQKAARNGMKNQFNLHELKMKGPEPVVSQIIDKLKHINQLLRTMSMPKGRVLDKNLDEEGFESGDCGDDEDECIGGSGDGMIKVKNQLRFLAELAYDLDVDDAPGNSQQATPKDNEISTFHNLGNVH

Row | Binder | Kd (GPC3 [1]) [nM] | koff (GPC3 [1]) [s⁻¹] | kon (GPC3 [1]) [M⁻¹ s⁻¹] | Kd (GPC3 [2]) [nM] | koff (GPC3 [2]) [s⁻¹] | kon (GPC3 [2]) [M⁻¹ s⁻¹] | fold drop in binding affinity (GPC3 [3]) [fold]
1 | VL1.M2-VH2.M6 humanized scFv (scFv, not shown: a dimerising Fc or GST, Crude scFv with Fc tag from HEK293 supernatant) scFv: DIVMTQTPLSLSVTPGQPASISCRSSQSLVHSNGNTYLHWYLQKPGQSPQLLIYKVSSRFSGVPDRFSGSGSGTDFTLKISRVEAEDVGVYYCSQNTHVPPTFGQGTKVEIKGGGGSGGGGSGGGGSQVQLVQSGAEVKKPGASVKVSCKASGYTFTSYEMHWVRQAPGQGLEWMGALDPKTGDTAYSQKFQGRVTLTADTSTSTVYMELSSLRSEDTAVYYCTRFYSYTYWGQGTLVTVSS | 6.8 | 0.00048 | 70000 | 2.7 | 0.0005 | 190000 | 
2 | VL1.M2-VH2.M11 humanized scFv (scFv, not shown: a dimerising Fc or GST) scFv: DIVMTQTPLSLSVTPGQPASISCRSSQSLVHSNGNTYLHWYLQKPGQSPQLLIYKVSSRFSGVPDRFSGSGSGTDFTLKISRVEAEDVGVYYCSQNTHVPPTFGQGTKVEIKGGGGSGGGGSGGGGSQVQLVQSGAEVKKPGASVKVSCKASGYTFTSYEMHWVRQAPGQGLEWMGALDPKTGSTAYSQKFQGRVTLTADTSTSTVYMELSSLRSEDTAVYYCTRFYSYTYWGQGTLVTVSS | 13 | 0.00085 | 67000 |  |  |  | < 4
